Data published in patent US7101975B1, “Method and composition for inhibition of angiogenesis using antagonists based on MMP-9 and β1 integrins” (University of Southern California, priority 1999, dated 2006).
Entries after “also recorded” stand apart in the source; their conditions may differ. Where no end group is shown, it is not given here.

What was measured:
[1] = molecular target: MMP-9 (Homo sapiens, UniProt P14780); assay: Solid phase binding assay of synthetic peptides to MMP-9; conditions: solid phase binding assays, FIG. 7
Procedure: For example, synthetic peptides were generated and analyzed for binding activity to MMP-9. The binding ability of the peptides was analyzed by solid phase binding assays.

[2] = system: angiogenesis on the CAMs of chick embryos; assay: Chick embryo CAM angiogenesis assay (bFGF-induced); type: in vivo; conditions: 10 day old chick embryos, single IV injection 100 μg 24 h later, counted three days later, FIG. 8B
From the text: For example, one assay measures angiogenesis in the chick chorioallantoic membrane (CAM) and is referred to as the CAM assay. The CAM assay has been described in detail by others, and further has been used to measure both angiogenesis and neovascularization of tumor tissues. See Ausprunk et al., Am. J. Pathol., 79:597-618 (1975) and Ossonski et al., Cancer Res., 40:2300-2309 (1980).
Angiogenesis was induced on the CAMs of 10 day old chick embryos with bFGF. Twenty-four hours later the embryos received a single IV injection with 100 μg of FRIP-1 or AAA control peptide. Three days later angiogenesis was quantified by counting the number of blood vessel branch points within the area of the filter disc. […] FIG. 8B is a quantification of the angiogenesis experiments. […] In FIG. 8B, NT corresponds to No bFGF, FRIP-1 to bFGF+FRIP-1 peptide, and AAA to bFGF+control AAA peptide. Data bars represent the mean±standard errors of 5 to 10 embryos per condition.

MMP-9, sequence (P14780 94-707): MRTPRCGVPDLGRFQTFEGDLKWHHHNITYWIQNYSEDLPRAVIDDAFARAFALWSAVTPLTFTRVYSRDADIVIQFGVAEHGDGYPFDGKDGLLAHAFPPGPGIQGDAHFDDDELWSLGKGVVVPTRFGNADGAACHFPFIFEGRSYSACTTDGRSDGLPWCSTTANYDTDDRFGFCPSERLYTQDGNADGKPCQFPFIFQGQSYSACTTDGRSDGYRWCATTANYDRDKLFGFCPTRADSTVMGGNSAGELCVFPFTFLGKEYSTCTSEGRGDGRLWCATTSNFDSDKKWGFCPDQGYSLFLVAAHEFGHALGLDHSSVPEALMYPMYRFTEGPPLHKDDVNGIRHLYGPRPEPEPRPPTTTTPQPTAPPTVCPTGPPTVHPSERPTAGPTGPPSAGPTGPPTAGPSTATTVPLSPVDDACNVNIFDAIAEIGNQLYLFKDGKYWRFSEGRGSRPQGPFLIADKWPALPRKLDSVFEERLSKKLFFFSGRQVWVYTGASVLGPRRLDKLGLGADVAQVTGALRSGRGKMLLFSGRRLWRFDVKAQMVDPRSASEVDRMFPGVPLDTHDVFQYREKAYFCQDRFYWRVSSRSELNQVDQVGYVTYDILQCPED

Row | Sequence | binding to MMP-9 [1] | angiogenesis (number of blood vessel branch points within the area of the filter disc) [2]
1 | CRLRSGEPQC (cysteine pairing not given here) [synthetic peptide derived from the C-terminal hemopexin-like domain of human MMP-9] | specifically bind to MMP-9; also recorded: binds to MMP-9 | blocks angiogenesis; also recorded: inhibit angiogenesis
2 | CRAAAGEPQC (cysteine pairing not given here) [control peptide identical to FRIP-1 except that 3 key amino acids were changed, reference compound] | little in any binding ability | 
3 | CRAAAAEPQC (cysteine pairing not given here) [control peptide, reference compound] | binds with substantially reduced affinity | 
